These results are taken from publication PMC7865074, “Role of PDZ-binding motif from West Nile virus NS5 protein on viral replication” (Scientific Reports, 2021).

In this assay the target is T1, biotinylated WNV NS5 PBM peptide (West Nile virus, also: biotinyl group, end not given here).
T1 construct: bait of the holdup assay; also called 13-mer peptide; source: synthetic peptide (solid phase, Fmoc; Proteogenix)
T1 peptide: RYEDTTLVEDTVL
In words: holdup assay (automated high-throughput chromatography); biotinylated NS5 PBM peptide as bait against 259 human PDZ domains expressed in E. coli; read-out binding intensity (BI), mean of replicates; BI threshold 0.2 for a significant interaction.

Ends that are not written are not given here.

B1: Disks large homolog 4, PDZ domain 3 (holdup construct) (domain or fragment, human, UniProt P78352 313-393, looked up)
chain: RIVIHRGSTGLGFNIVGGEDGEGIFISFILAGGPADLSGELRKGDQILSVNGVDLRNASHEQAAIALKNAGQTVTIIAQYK
notes: also called DLG4_3; source: E. coli, PDZome V.2 library, high-throughput expression
For B1, the “BI (holdup binding intensity)” value stood at 0.24.

B2: Microtubule-associated serine/threonine-protein kinase 2, PDZ domain (holdup construct) (domain or fragment, human, UniProt Q6P0Q8 1104-1192, looked up)
chain: PIIIHRAGKKYGFTLRAIRVYMGDSDVYTVHHMVWHVEDGGPASEAGLRQGDLITHVNGEPVHGLVHTEVVELILKSGNKVAISTTPLE
notes: also called MAST2; source: E. coli, PDZome V.2 library, high-throughput expression
In the case of B2, the “BI (holdup binding intensity)” value is 0.72.

B3: Protein scribble homolog, PDZ domain 3 (holdup construct) (domain or fragment, human, UniProt Q14160 1004-1093, looked up)
chain: EIRLPRAGGPLGLSIVGGSDHSSHPFGVQEPGVFISKVLPRGLAARSGLRVGDRILAVNGQDVRDATHQEAVSALLRPCLELSLLVRRDP
notes: also called SCRIB_3; source: E. coli, PDZome V.2 library, high-throughput expression
Consider B3, for which the “BI (holdup binding intensity)” value amounted to 0.33.

B4: Membrane-associated guanylate kinase, WW and PDZ domain-containing protein 1, PDZ domain 2 (holdup construct) (domain or fragment, human, UniProt Q96QZ7 472-554, looked up)
chain: HTKLRKSSRGFGFTVVGGDEPDEFLQIKSLVLDGPAALDGKMETGDVIVSVNDTCVLGHTHAQVVKIFQSIPIGASVDLELCR
notes: also called MAGI1_2; source: E. coli, PDZome V.2 library, high-throughput expression
B4: the “BI (holdup binding intensity)” value turned out to be 0.55.

B5: Rho GTPase-activating protein 21, PDZ domain (holdup construct) (domain or fragment, human, UniProt Q5T5U3 50-159, looked up)
chain: TVTLKRTSQGFGFTLRHFIVYPPESAIQFSYKDEENGNRGGKQRNRLEPMDTIFVKQVKEGGPAFEAGLCTGDRIIKVNGESVIGKTYSQVIALIQNSDTTLELSVMPKD
notes: also called ARHGAP21; source: E. coli, PDZome V.2 library, high-throughput expression
As to B5, the “BI (holdup binding intensity)” value stood at 0.3.

B6: FERM and PDZ domain-containing protein 4, PDZ domain (holdup construct) (domain or fragment, human, UniProt Q14CM0 78-155, looked up)
chain: KVEMRRDPVLGFGFVAGSEKPVVVRSVTPGGPSEGKLIPGDQIVMINDEPVSAAPRERVIDLVRSCKESILLTVIQPY
notes: also called FRMPD4; source: E. coli, PDZome V.2 library, high-throughput expression
Consider B6, for which the “BI (holdup binding intensity)” value came out at 0.32.

B7: Partitioning defective 3 homolog, PDZ domain 3 (holdup construct) (domain or fragment, human, UniProt Q8TEW0 590-677, looked up)
chain: EVPLNDSGSAGLGVSVKGNRSKENHADLGIFVKSIINGGAASKDGRLRVNDQLIAVNGESLLGKTNQDAMETLRRSMSTEGNKRGMIQ
notes: also called PARD3_3; source: E. coli, PDZome V.2 library, high-throughput expression
For the molecule B7, the “BI (holdup binding intensity)” value is 0.29.

B8: PDZ domain-containing protein GIPC3, PDZ domain (holdup construct) (domain or fragment, human, UniProt Q8TF64 112-192, looked up)
chain: EVEVTKTEDALGLTITDNGAGYAFIKRIKEGSIINRIEAVCVGDSIEAINDHSIVGCRHYEVAKMLRELPKSQPFTLRLVQ
notes: source: E. coli, PDZome V.2 library, high-throughput expression
In the case of B8, the “BI (holdup binding intensity)” value is less than 0.15.

B9: SH3 and multiple ankyrin repeat domains protein 3, PDZ domain (holdup construct) (domain or fragment, human, UniProt Q9BYB0 646-740, looked up)
chain: VAVLQKRDHEGFGFVLRGAKAETPIEEFTPTPAFPALQYLESVDVEGVAWRAGLRTGDFLIEVNGVNVVKVGHKQVVALIRQGGNRLVMKVVSVT
notes: also called SHANK3; source: E. coli, PDZome V.2 library, high-throughput expression
Take B9: the “BI (holdup binding intensity)” value is 0.39.

B10: Connector enhancer of kinase suppressor of ras 3, PDZ domain (holdup construct) (domain or fragment, human, UniProt Q6P9H4 211-293, looked up)
chain: EVHLPNIKPGEGLGMYIKSTYDGLHVITGTTENSPADRSQKIHAGDEVIQVNQQTVVGWQLKNLVKKLRENPTGVVLLLKKRP
notes: also called CNKSR3; source: E. coli, PDZome V.2 library, high-throughput expression
As to B10, the “BI (holdup binding intensity)” value is less than 0.15.

B11: Na(+)/H(+) exchange regulatory cofactor NHE-RF2, PDZ domain 1 (holdup construct) (domain or fragment, human, UniProt Q15599 11-90, looked up)
chain: LCRLVRGEQGYGFHLHGEKGRRGQFIRRVEPGSPAEAAALRAGDRLVEVNGVNVEGETHHQVVQRIKAVEGQTRLLVVDQ
notes: also called NHERF2_1; source: E. coli, PDZome V.2 library, high-throughput expression
In the case of B11, the “BI (holdup binding intensity)” value was found to be 0.21.

B12: Disks large homolog 1, PDZ domain 2 (holdup construct) (domain or fragment, human, UniProt Q12959 319-405, looked up)
chain: EIKLIKGPKGLGFSIAGGVGNQHIPGDNSIYVTKIIEGGAAHKDGKLQIGDKLLAVNNVCLEEVTHEEAVTALKNTSDFVYLKVAKP
notes: also called DLG1_2; source: E. coli, PDZome V.2 library, high-throughput expression
On to B12, for which the “BI (holdup binding intensity)” value amounted to 0.22.

B13: Zona Occludens 3; Tight Junction Protein 3, PDZ domain 2 (holdup construct) (domain or fragment, human, UniProt O95049 195-272, looked up)
chain: SVLVKRRDSEEFGVKLGSQIFIKHITDSGLAARHRGLQEGDLILQINGVSSQNLSLNDTRRLIEKSEGKLSLLVLRDR
notes: also called TJP3_2; source: E. coli, PDZome V.2 library, high-throughput expression
With B13, the “BI (holdup binding intensity)” value came out at 0.23.

B14: Protein piccolo, PDZ domain (holdup construct) (domain or fragment, human, UniProt Q9Y6V0 4496-4590, looked up)
chain: RIKITRDSKDHTVSGNGLGIRIVGGKEIPGHSGEIGAYIAKILPGGSAEQTGKLMEGMQVLEWNGIPLTSKTYEEVQSIISQQSGEAEICVRLDL
notes: also called PCLO; source: E. coli, PDZome V.2 library, high-throughput expression
In the case of B14, the “BI (holdup binding intensity)” value is less than 0.15.

B15: Regulating synaptic membrane exocytosis protein 2, PDZ domain (holdup construct) (domain or fragment, human, UniProt Q9UQ26 668-754, looked up)
chain: DGSVPRDSGAMLGLKVVGGKMTESGRLCAFITKVKKGSLADTVGHLRPGDEVLEWNGRLLQGATFEEVYNIILESKPEPQVELVVSR
notes: also called RIMS2; source: E. coli, PDZome V.2 library, high-throughput expression
B15: the “BI (holdup binding intensity)” value is less than 0.15.

B16: Rho guanine nucleotide exchange factor 12, PDZ domain (holdup construct) (domain or fragment, human, UniProt Q9NZN5 72-151, looked up)
chain: CVIIQKDDNGFGLTVSGDNPVFVQSVKEDGAAMRAGVQTGDRIIKVNGTLVTHSNHLEVVKLIKSGSYVALTVQGRPPGS
notes: also called ARHGEF12; source: E. coli, PDZome V.2 library, high-throughput expression
Regarding B16, the “BI (holdup binding intensity)” value came to 0.25.

B17: Protein scribble homolog, PDZ domain 1 (holdup construct) (domain or fragment)
chain: not shown
notes: also called SCRIB_1; source: E. coli, PDZome V.2 library, high-throughput expression
Regarding B17, the “BI (holdup binding intensity)” value came to 0.27.
